In the DeepSol protein solubility set:

Experiment: soluble on expression in E. coli; label from the status in PepcDB or PDB records

Row | Sequence | soluble on expression in E. coli
1 | MAHHHHHHMYLHLIKNSTAKTPQLYTAKDNSKTAMHLLTRRAANANYTVNRWYLKEKVDSSNRMRLEGLYECVLCASCTGSCPQYWWNREHFLGPAVLLQSYRWLVEPLDRDFDERVRMFETGNLVNMCHNIFNCSITCPKFLNPGLASKEIKRLSSPSTKRVGPAIEMEPVTSGKEAGKRSLLQRL | soluble
2 | MSAKEKFTSLSPAEFFKRNPELAGFPNPARALYQTVRELIENSLDATDVHGILPNIKITIDLIDDARQIYKVNVVDNGIGIPPQEVPNAFGRVLYSSKYVNRQTRGMYGLGVKAAVLYSQMHQDKPIEIETSPVNSKRIYTFKLKIDINKNEPIIVERGSVENTRGFHGTSVAISIPGDWPKAKSRIYEYIKRTYIITPYAEFIFKDPEGNVTYYPRLTNKIPKPPQEVKPHPYGVDREEIKILINNLKRDYTIKEFLVNEFQSIGDTTADKILELAGLKPNKKVKNLTEEEITRLVETFKKDEDFRSPSADSLSVIGEDLIELGLKKIFNPDFAASITRKPKAYQGHPFIVEAGVAFGGSIPVGEEPIVLRYANKIPLIYDEKSDVIWKVVEELDWKRYGIESDQYQMVVMVHLCSTKIPYKSAGKESIAEVENIEKEIKNALMEVARKLKQYLSEKRKEQEAKKKLLAYLKYIPEVSRSLATFLASGNKELVSKYQNEISEGLFKLISKKLDLINIEEYRKVYRVDSE | soluble
3 | MITMNMNDYKNKRVPPDWCPGCGNFAQLSAITMALAELKIDPKDVVVASGIGCSSNMPEFLNTYGFHGLHGRLVPFAAGVKWANSKLTVIAYGGDGDGFFEGTQHFYHTAKRNVDITYMVSDNQVFGLTTGQASPTAPIGLKTKTTPDGNIETPFNPIAFALNAGATFVARAFSGDIKHLKDITVRAIKHKGFSFIDVISPCVTWNKENSYEYFRPRVYHLENNDVTNFDQAYKLAFEWGDHIPIGVFYEVERPTYEDLDEVLKEGPLVEQGIHKLTEDDLEEFA | not soluble
4 | MIQTPYYLIDADRLRQNMAVVDRLRQASGAKALLALKCFATWPAFEHMRDHMDGTTSSSLYELRLGREKFGKETHAYSVAWPDHEIDEAVGYADKIIFNSVGQLARFRNRTGGIARGLRLNPGLSTSGFDLADPARPFSRLGEWSAEKIEAVLPDISGVMIHYNCENADVDLFERQLSEIEGRFGAILDRLDWVSLGGGIHFTGEGYPVDRLAARLKAFAAAHGVQVYLEPGEAAITRSATLEVTVLDLLDNGKQLAIVDSSVEAHMLDLLIYRQSAKVEPDAGDHSYMVCGKSCLAGDIFGEFRFAQPLQVGDRLSIADAAGYTMVKKNWFNGVKMPSIVIREPDGSLRVAREFGYGDYASSLG | not soluble
5 | MKLIAVLNLLNQLSNKNSLEEYLNGVIDFLSGWTGCENIGIRVLREAGLAPYVVHRGFDKDFIASESCISVEGDECVCLRVLKQQFKSEDQDHISAAGTYYAPNFYRYVEELREDQLLNFRGLCAHKQFKSLAVIPLLHQGKVVGAIHIADIKDGVFSEEDIHFIETIRPLVAEAIYRHNLEKALEHHHHHH | not soluble
6 | MSLKIADIQVRTEHFPLTRPYRIAFRSIEEIDNLIVEIRTADGLLGLGAASPERHVTGETLEACHAALDHDRLGWLMGRDIRTLPRLCRELAERLPAAPAARAALDMALHDLVAQCLGLPLVEILGRAHDSLPTSVTIGIKPVEETLAEAREHLALGFRVLKVKLCGDEEQDFERLRRLHETLAGRAVVRVDPNQSYDRDGLLRLDRLVQELGIEFIEQPFPAGRTDWLRALPKAIRRRIAADESLLGPADAFALAAPPAACGIFNIKLMKCGGLAPARRIATIAETAGIDLMWGCMDESRISIAAALHAALACPATRYLDLDGSFDLARDVAEGGFILEDGRLRVTERPGLGLVYPDEGHHHHHH | soluble
7 | MQYHYQWLTPFDAKRTTVVCLHGFTGTLATFAAVFPSQTPYNVLGIDLPGHGATASLVAPERYTMKQVCHDIAELTESLNLPCFCLLGYSMGARTALGFALHYPQKVQHLLLESGSPGLATAAERQARICQDHRLAERLLEEPLVDFIDFWQELPLFQTQKALSVAQQMAIRQERLSQSAFGLVSSLWYMGTGAQESYWERLAELQPIPTDLLVGGEDQKFIGIAKKMQARQPLLRLTIFPEAGHCIHLEQPTIFYEKVTALLEGAI | not soluble
8 | MEKSSSNFIQNGKRDHGGKLRQYNYKLEEAEYRYFTEERLFYRRRNPVEKIAQRIPKPQIEGTFTWSDELRCNYDGNTQFLPVEALEGCLPLEKLNQHLKPGFRLEVVVRPSLDPSITTKSPEIRWFGEVTAVCGFYVAIKFVGELNRRPCWFHMLSEDIFDIGSGLKQDPAMKWLQYRPLSLLKPMQCPKFWRRGSTPAPPVPRPTEEILDEFQAELHENRISEPKIFDQLRHLAHRPSRFRLNQRVELLNYLEPTEIRVARILRILGRRLMVMVTAQDYPEDLPSVEAKDRQVQHENVEFWVDESSFFLFPVGFAMINGLRTKATEGYLEHSRRIAEGSGTEKLNLLKVGQKFELLDPLSDLRQSFCVATIRKICKTPGFLIISPDETESDDESFPIHIDNHFMHPVGYAEKFGIKLDRLAGTEPGKFKWEGYLKEKQAEKIPDEMLRPLPSKERRHMFEFGRVLEAVGQNETYWISPASVEEVHGRTVLIEFQGWDSEFSELYDMDSHDLLPAGWCEFFNFKLRHPVLPVNDPNAENGEYD | not soluble
9 | MKEKISEKEYKALIRKTGKEHFDGEKEEYGDGTVGVWTYELRKYKLKPPVKVKYVTQEQFQEYKDSNNQRLIKIENKVDKLVEIVQIHGEQIKAQGETLQLILQTLQKMSDRLDKMEKRIDKLESK | soluble
10 | MAAQLDPSSEFAALVKQLQREPDNPGLKQAVVKRLPEMQLLAKTNSLALFRLAQVYSPSSSQHKQMILQSAAQGCTNAMLSACEILLKSGAANDLITAAHYMRLIQSSKDSYIIGLGKKLLEKYPDFAEELKSKEVPYQSTLRFFGVQSESNKENEEKIINRPTV | not soluble
11 | MGSDKIHHHHHHMSKLLMIGTGPVAIQLANICYLKSDYEIDMVGRASTSEKSKRLYQAYKKEKQFEVKIQNEAHQHLEGKFEINRLYKDVKNVKGEYETVVMACTADAYYDTLQQLSLETLQSVKHVILISPTFGSQMIVEQFMSKFSQDIEVISFSTYLGDTRIVDKEAPNHVLTTGVKKKLYMGSTHSNSTMCQRISALAEQLKIQLEVVESPLHAETRNSSLYVHPPLFMNDFSLKAIFEGTDVPVYVYKLFPEGPITMTLIREMRLMWKEMMAILQAFRVPSVNLLQFMVKENYPVRPETLDEGDIEHFEILPDILQEYLLYVRYTAILIDPFSQPDENGHYFDFSAVPFKQVYKNEQDVVQIPRMPSEDYYRTAMIQHIGKMLGIKTPMIDQFLTRYEASCQAYKDMHQDQQLSSQFNTNLFEGDKALVTKFLEINRTLS | not soluble
12 | GPGSMSSGSHRSPSAMRPSTRISSIGATSNRSSTHNTETELDPFVASLSRVTVYTDIPDKTLQRIMSITVDAYNRFVLVPTRNTWRKEEGSRKELEREVERTALRDIAQAVKVNVEAALGGTWHVIYGRSFATYVTHQQRCFCHFQLDGANVVVWRHGG | soluble
13 | NTLTVKMNDALSSGTGENIGEITVSETPYGLLFTPHLNGLTPGIHGFHVHTNPSCMPGMKDGKEVPALMAGGHLDPEKTGKHLGPYNDKGHLGDLPGLVVNADGTATYPLLAPRLKSLSELKGHSLMIHKGGDNYSDKPAPLGGGGARFACGVIEK | soluble
14 | LDARFSDAESNSGLTKATTDTLEAYLDVNEDGTWEVDNFLKKSVDKQHGWMQIIDSEGNTDYSYGVPKDVPGTYTKKELLSIYKTKKLHNYKLNYWAINIEDKSYLLLSGWKSKSEQLLTSVEKREQKIDSLAHYKSSTIDYIKRKKGAIYLLDSNGKILDSINSTKSERKTMNQLELLKYSSKPWNYKREISVKILNKDRWMVATVPNPVYVTDQEFNKSFLK | not soluble
15 | MCPEFQRKAAGAPRMGAMLARCVLTAALALQAAAAARAVEIEIGVASRGVVDGLEFVQFSADERTMATTHWGNVVHLWDLKTLRVRSSVSVANRDFDFDLSPDGRALAVWNEEGKGEIELYDTDNGQPARALPAPRLPQGESRRGRSLVYRDDGTLEFVSHGWIGGHARKAYLLAVPAGQPRAAETPLPALVNSVAFRKSAVMDQGRLLLAGVDGADDELAIMDIASGRMLAREPGFRIASYAADARRAVFVEADGKQRILAFDFSSRSLSTLPRWTGSGKFQPYRFVAGTRFLVLAPDEPDASTRRAAPGIYDLQTRRLHRLPPDADPGSIDVWGATASYVLCNPDHTACQAEVADLAISRKLGTFAVQPSADFRTWISPSGSMVVVGGADDGTMMVWSVKEQRVIGPNLEHHHHHH | not soluble
16 | MYKILRTEKSWIEGSAVEQVKKLASLKGVENVIGYPDLHPGKTPIGISIITKDVIYPHLIGNDIGCSISLFETSELKRKFKVEKVMKTLQNSDLKNEIKKDFNLGTIGGGNHFAEFTLVDKILDESETTNFDKNKVYLLVHSGSRGLGEEILRKYIDYYSCQNGLAVNSEGFNNYISDYKKAVVFAKENRQLIAKNLCQLLNLKAFDLKIEAIHNGLELREDYIIHRKGAATALNKYVVIAGSRGDYSYIVKPINSSLETGFSIAHGAGRKWKRSGCKEKLQGKFSKKAIRNRSFSYNLICSNTNLVYEEAPEAYKNIDRVIDDLLSFNLIKVVARLKPLITYKDLEHHHHHH | not soluble
17 | MSLAEKLPFRVKKHQSKLLKKLGETDMQLQYNKVDNLKIVVSKINGMIIHPGETFSFCKTVGLPTRKKGYKEGMELSFGKPRAGVGGGICQSTNLLHWLALHSPLTITERHHHSIDPFPDNGRVLPWASGAAVFYNYIDFQLTNDTSWAFQINLWLTDKLLEGEIRVNEELDFAYHVKERNHRFIKKEGAYFRTNEIWRHKIAKFRSGALLEEELMYKNYGKVMYVPKTYQEGHHHHHH | soluble
18 | MQVCRQWVTLSLYNNGKWPKMKYQQLENLECGWKWQYLINKWKDGEPVTRYIDKSEIEAAVQKLRAIEHEPTHVLSWIEEHMSSELDNKLKQAIRAKRKRHFNAEQIHTRKKSIDLDYRVWEKLSLKANELGCTLSDAIEYLLSEASRSEKASKTVNSLKEDLSRLLAE | not soluble
19 | MCDKSKTVLDYTIEFLDKYIPEWFETGNKCPLFIFFSGPQGSGKSFTSIQIYNHLMEKYGGEKSIGYASIDDFYLTHEDQLKLNEQFKNNKLLQGRGLPGTHDMKLLQEVLNTIFNNNEHPDQDTVVLPKYDKSQFKGEGDRCPTGQKIKLPVDIFILEGWFLGFNPILQGIENNDLLTGDMVDVNAKLFFYSDLLWRNPEIKSLGIVFTTDNINNVYGWRLQQEHELISKVGKGMTDEQVHAFVDRYMPSYKLYLNDFVRSESLGSIATLTLGIDSNRNVYSTKTRCIE | soluble
20 | MSQAAFVNPSILTWSRERAGLSAAQVARKLPVKPERVEEWESGEARPTFLQAQKWASVAHVPFGFLFLLQPPVEQLPLPDLRTVGNSAPLRPSLELLDTVKDAIRKQDWYLEYLHVQERQPLPFVGRFDSRTPVKTVVSDIRQTLGVDPEKSRLDYDKYSRALIDAAEVAGVLVMRSGIALGNTHRKLEVSEFRGFAISNPLAPVVFINSSDAPTARLFTLMHELAHIWIGSSGVSDAGTANGREEERFCNAVAGEFLVPEALFRTVWSASIEWESNLATLATRFHVSKLVIGRRAMDLGYVTQEQYGAYYQKILKAFRDEKGGAEDYYRNATAKNSTRLSKAVLTETLSGRMLLREAGNLLGVQPAKLRTLAAEHL | not soluble
21 | GHHHHHHAIAENLYFQSKFLDVECLSELQRKLNDLELTDYRVRCQLEAYSCKPAGFDKKLSKSLEQKLVEQLEASPRVLEGSPVGSLEDQSARKTLINLICTLNAAHQDYDFSSLQLSRLKRVQDVRSLQQHVDSLFELFYRQLGLEFRQFLWENIGQIIRPEECEVYSYLPDYESDPYSASGALWSFCYFFYHKNMKKILFFSCTLSTRLAEDSESTESVDEEDFGKESSGLETPFAMFETVI | not soluble
